Data on two molecules can be found in PMC4522657, “Identification of a DYRK1A Inhibitor that Induces Degradation of the Target Kinase using Co-chaperone CDC37 fused with Luciferase nanoKAZ” (Scientific Reports, 2015).

What all share (assay): ELISA; Lysates (HENG buffer: 50 mM HEPES-KOH pH 7.9, 150 mM NaCl, 20 mM Na2MoO4, 2 mM EDTA, 5% glycerol, 0.5% Triton X-100) of 293T cells stably expressing CDC37-nanoKAZ, nanoKAZ-HSP90β or nanoKAZ and transiently transfected with 3xFLAG-tagged kinases; 3xFLAG-kinase captured on 96-well plates coated with anti-FLAG M2, 4 °C for 3 h, washed; bound nanoKAZ fusion read by luminescence (Imax) with bis-coelenterazine, as …
What all share (settings): partners not purified
(In general: In an ELISA, binding on a coated surface is turned into a signal by an enzyme label.)

The target in assay [1] is T1, 3xFLAG-DYRK1A (Y319F/Y321F) (UniProt Q13627-1 1-763, Y319F | Y321F).
T1 construct: Expressed upstream of F2A-EGFP as m2; also called Y319F/Y321F mutant; DYRK1A mutant

Assay [2] concerns the target T2, 3xFLAG-tagged kinase-dead mutant of DYRK1A (K188R) (UniProt Q13627-1 1-763, K188R).
T2 construct: DYRK1A with Lys188 substituted to Arg; Expressed upstream of F2A-EGFP as m2; also called K188R mutant

For assay [3], the target named is T3, 3xFLAG-DYRK1A (Y111F) (UniProt Q13627-1 1-763, Y111F).
T3 construct: DYRK1A with the autophosphorylation site Tyr111 substituted to Phe; Expressed upstream of F2A-EGFP as m2

For assay [4], the target named is T4, 3xFLAG-tagged DYRK4 (UniProt Q9NR20 1-520).
T4 construct: DYRK4; residues of F2A may remain at the C-terminus (surmise); also called 3xFLAG-DYRK4; source: 293T cells stably expressing CDC37-nanoKAZ, transiently transfected (pcDNA5/FRT/TO), in lysate
T4 sequence (looked up): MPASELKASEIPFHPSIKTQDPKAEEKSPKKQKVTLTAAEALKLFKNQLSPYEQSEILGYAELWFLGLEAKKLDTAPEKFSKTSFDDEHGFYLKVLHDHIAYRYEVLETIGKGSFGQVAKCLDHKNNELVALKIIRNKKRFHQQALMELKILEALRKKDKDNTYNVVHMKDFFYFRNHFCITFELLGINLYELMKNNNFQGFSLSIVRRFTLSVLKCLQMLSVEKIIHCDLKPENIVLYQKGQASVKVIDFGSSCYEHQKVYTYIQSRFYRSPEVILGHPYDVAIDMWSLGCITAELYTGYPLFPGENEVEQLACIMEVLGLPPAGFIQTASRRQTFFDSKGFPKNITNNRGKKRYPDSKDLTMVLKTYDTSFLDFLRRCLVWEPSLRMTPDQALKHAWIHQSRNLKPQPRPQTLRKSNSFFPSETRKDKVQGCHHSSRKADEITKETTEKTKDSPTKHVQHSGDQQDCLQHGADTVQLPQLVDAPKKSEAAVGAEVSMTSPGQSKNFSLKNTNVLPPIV

Assay [5] deals with T5, 3xFLAG-DYRK1A (Y159F) (UniProt Q13627-1 1-763, Y159F).
T5 construct: DYRK1A with the autophosphorylation site Tyr159 substituted to Phe; Expressed upstream of F2A-EGFP as m2

Assay [6] concerns the target T6, 3xFLAG-DYRK1A (Y145F/Y147F) (UniProt Q13627-1 1-763, Y145F | Y147F).
T6 construct: DYRK1A with the autophosphorylation sites Tyr145 and Tyr147 substituted to Phe; Expressed upstream of F2A-EGFP as m2

B1: nanoKAZ-HSP90β (natural protein)
chain: not shown
notes: HSP90β (HSP90AB1 gene product); Codon-optimized nanoKAZ (GenBank AB823628) fused to the amino-terminus of HSP90β; also called HSP90β fused with nanoKAZ; nanoKAZ-HSP90AB1; source: 293T cell line stably expressing nanoKAZ-HSP90β (pCAGIPuro vector), in lysate; not shown: nanoKAZ (luciferase reporter), N-terminal, kept
As for B1, the “fold stronger interaction than intact DYRK1A” value in assay [1] came out at 3.8 fold; in assay [2] it was 10 fold.

B2: CDC37-nanoKAZ (natural protein, UniProt Q16543 1-378, looked up)
chain: MVDYSVWDHIEVSDDEDETHPNIDTASLFRWRHQARVERMEQFQKEKEELDRGCRECKRKVAECQRKLKELEVAEGGKAELERLQAEAQQLRKEERSWEQKLEEMRKKEKSMPWNVDTLSKDGFSKSMVNTKPEKTEEDSEEVREQKHKTFVEKYEKQIKHFGMLRRWDDSQKYLSDNVHLVCEETANYLVIWCIDLEVEEKCALMEQVAHQTIVMQFILELAKSLKVDPRACFRQFFTKIKTADRQYMEGFNDELEAFKERVRGRAKLRIEKAMKEYEEEERKKRLGPGGLDPVEVYESLPEELQKCFDVKDVQMLQDAISKMDPTDAKYHMQRCIDSGLWVPNSKASEAKEGEEAGPGDPLLEAVPKTGDEKDVSV
notes: Kinase-specific co-chaperone CDC37; also called CDC37 fused with nanoKAZ; source: 293T cells stably expressing CDC37-nanoKAZ (pCAGIPuro vector), in lysate; not shown: nanoKAZ (luciferase reporter), C-terminal, kept
In the case of B2, the “fold stronger interaction than intact DYRK1A” value was 1.4 fold in assay [3]; 8 fold in assay [1]; 8.4 fold in assay [5]; 17 fold in assay [2]; 2.4 fold in assay [6]. Besides, in assay [4], the “fold stronger interaction than 3xFLAG-DYRK1A” value was determined as 102 fold.
